Measured values reported in patent publication US11649460B2, “DNA aptamers, method for inhibiting human galectin-1 and method of treating a mammal in need thereof” (priority 2020, dated 2023).

Columns and labels:
galectins = settings: in vitro; cited from earlier work
[1] = tested on: SK-BR-3 human breast adenocarcinoma; test: SRB cell proliferation (cytotoxicity) assay, SK-BR-3
Excerpt: (§1) The XLSTAT software was used to determine the IC50, TGI and LC50 values using the four-parameter logistic curve equation.

[2] = molecular target: T1, hGal1-induced hemagglutination of red blood cells (Homo sapiens, UniProt P09382); test: Hemagglutination inhibition assay, native hGal1; assay type: cell-based; settings: native Gal1 5 μM
T1 construct: 42; made in house; host or cells: E. coli strain M-15
T1 sequence (P09382 2-135): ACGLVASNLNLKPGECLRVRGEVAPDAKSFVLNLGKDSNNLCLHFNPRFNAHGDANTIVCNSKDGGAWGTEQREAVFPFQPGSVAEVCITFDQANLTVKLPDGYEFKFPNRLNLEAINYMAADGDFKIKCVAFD
Summary of the method: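 hGal1 (5 μM) was mixed with aptamer at 0-40 μM in PBS pH 7.4, then 3% type B+ human red blood cells were added and the mixture incubated 2 h at room temperature. Agglutination area was measured from plate photographs and expressed as relative agglutination.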

[3] = tested on: HCT 116 human colorectal carcinoma; test: SRB cell proliferation (cytotoxicity) assay, HCT 116
Excerpt: as §1

[4] = tested on: NHF human foreskin skin fibroblasts; test: in vitro
Excerpt: as §1

[5] = tested on: seven cell lines of solid human tumors; test: SRB antiproliferative assay, panel of tumor lines; assay type: cell-based; settings: read-out: 50% growth inhibitory concentrations (IC50); all tumor cell lines assessed
Excerpt: as §1

[6] = tested on: A-375 human malignant melanoma; test: SRB cell proliferation (cytotoxicity) assay, A-375
Excerpt: as §1

[7] = tested on: DU-145 human prostate carcinoma cell line; test: SRB cell proliferation (cytotoxicity) assay, DU-145
Excerpt: as §1

OVCAR-3 cell line = test: Synergism test with cisplatin, OVCAR-3; settings: cisplatin 3 μM
Excerpt: For the analysis of cell proliferation, the non-clonogenic method of sulforodamine B (SRB) was used, a protein dye that binds to the basic amino acid residues of cell proteins that were viable at the time of the fixation process. Therefore, the greater the amount of SRB bound per compartment, the less the antiproliferative activity of the item under study.

[8] = tested on: OVCAR-3 human ovarian adenocarcinoma cell line; test: SRB cell proliferation (cytotoxicity) assay, OVCAR-3
Excerpt: as §1

[9] = tested on: MCF-7 human breast adenocarcinoma cell line; test: SRB cell proliferation (cytotoxicity) assay, MCF-7
Excerpt: as §1

[10] = tested on: HT-29 human colorectal adenocarcinoma; test: SRB cell proliferation (cytotoxicity) assay, HT-29
Excerpt: as §1

[11] = molecular target: T2, native human galectin-1 (hGal1) (Homo sapiens, UniProt P09382); test: Thermofluor thermal shift assay (TSA), native galectin-1; assay type: binding; settings: 5 μM protein
T2 construct: 42; made in house; host or cells: E. coli strain M-15
T2 sequence (P09382 2-135): as above
Experimental: In an attempt to screen among the selected aptamers that better interact with hGal1, differential scanning fluorimetry (Termofluor) was used to characterize their binding to its target. Among all the selected aptamers, SEQ ID NO.: 4 seemed to have a more intense effect on hGal1 thermoshift and so was chosen for further analysis. The selected aptamer had its interaction evaluated with native and alkylated galectin-1. […] The respective thermal displacements were evaluated as a function of an increasing concentration of SEQ ID NO.: 4 (FIG. 1).
Thermofluor experiments were performed on an Mx3005 RT-PCR (Agilent Technologies) using the SYPRO® Orange dye (492/610 nm) (Invitrogen) as fluorescent probe. The purified (native and alkylated) protein samples were incubated for 30 min with increasing concentration of the molecules of interest, centrifuged, and submitted to the thermal denaturation assay, totalizing four distinct experiments. In a 96-well plate (Agilent Technologies) 20 μl of the reaction containing 5 μM of each protein in buffer PBS 1× and 5× SYPRO® Orange were heated from 25° C. to 95° C. at a rate of 1° C./min. The experimental result was processed as in the protocol previously described and the melting temperature was obtained using GraphPad Prism software (www.graphpad.com).

Molecule: 1-methyl derivative of LacNac
- Kd (galectins): 70 µM

B1: AGCTGACACAGCAGGTTGGTGCCAACAAGAAAAGAAACCGTTACAGAAGACACTACAGAATAAGTGAAAAGCCGAGTCGAGCAATCTCGAAAT (nucleic acid)
DNA: AGCTGACACAGCAGGTTGGTGCCAACAAGAAAAGAAACCGTTACAGAAGACACTACAGAATAAGTGAAAAGCCGAGTCGAGCAATCTCGAAAT
modifications: chemistry not given here
- Relative cell viability (%) of test items ([1]; 0.781 µM): 98.0%
- Relative cell viability (%) of test items ([1]; 1.562 µM): 99.1%
- Relative cell viability (%) of test items ([1]; 3.125 µM): 113.9%
- Relative cell viability (%) of test items ([1]; 6.25 µM): 95.4%
- Relative cell viability (%) of test items ([1]; 12.5 µM): 90.0%
- Relative cell viability (%) of test items ([1]; 25 µM): 50.2%
- Relative cell viability (%) of test items ([1]; 50 µM): −8.6%
- Relative cell viability (%) of test items ([1]; 100 µM): −66.5%
- TGI: Concentration for total inhibition of cell growth ([1]; SK-BR-3): 45.137 µM
- IC50 ([1]; read-out: IC50: Concentration to inhibit 50% of cell growth, SK-BR-3): 26 µM
- CC50 ([1]; read-out: LC50: Concentration for 50% cell death, SK-BR-3): 78.6 µM
- inhibitory effect on galectin-induced hemagglutination [2]: better effect
- Relative cell viability (%) of test items ([3]; 0.781 µM): 95.9%
- Relative cell viability (%) of test items ([3]; 1.562 µM): 97.5%
- Relative cell viability (%) of test items ([3]; 3.125 µM): 99.9%
- Relative cell viability (%) of test items ([3]; 6.25 µM): 96.1%
- Relative cell viability (%) of test items ([3]; 12.5 µM): 69.4%
- Relative cell viability (%) of test items ([3]; 25 µM): 27.9%
- Relative cell viability (%) of test items ([3]; 50 µM): 6.3%
- Relative cell viability (%) of test items ([3]; 100 µM): −47.3%
- TGI: Concentration for total inhibition of cell growth ([3]; HCT 116): 47.447 µM
- IC50 ([3]; read-out: IC50: Concentration to inhibit 50% of cell growth, HCT 116): 20.2 µM
- CC50 ([3]; read-out: LC50: Concentration for 50% cell death, HCT 116): > 100 µM
- Relative viability (%) of test items ([4]; 0.781 µM): 103.3%
- Relative viability (%) of test items ([4]; 1.562 µM): 101.8%
- Relative viability (%) of test items ([4]; 3.125 µM): 93.5%
- Relative viability (%) of test items ([4]; 6.25 µM): 96.1%
- Relative viability (%) of test items ([4]; 12.5 µM): 101.4%
- Relative viability (%) of test items ([4]; 25 µM): 66.8%
- Relative viability (%) of test items ([4]; 50 µM): 24.3%
- Relative viability (%) of test items ([4]; 100 µM): −32.9%
- TGI: Concentration for total inhibition of cell growth ([4]; NHF): 64.820 µM
- IC50 ([4]; read-out: IC50: Concentration to inhibit 50% of cell growth, NHF): 35.7 µM
- CC50 ([4]; read-out: LC50: Concentration for 50% cell death, NHF): > 100 µM
- IC50 [5]: < 25 µM
- Relative cell viability (%) of test items ([6]; 0.781 µM): 92.6%
- Relative cell viability (%) of test items ([6]; 1.562 µM): 84.5%
- Relative cell viability (%) of test items ([6]; 3.125 µM): 87.7%
- Relative cell viability (%) of test items ([6]; 6.25 µM): 74.2%
- Relative cell viability (%) of test items ([6]; 12.5 µM): 81.1%
- Relative cell viability (%) of test items ([6]; 25 µM): 65.8%
- Relative cell viability (%) of test items ([6]; 50 µM): 51.6%
- Relative cell viability (%) of test items ([6]; 100 µM): −72.1%
- TGI: Concentration for total inhibition of cell growth ([6]; A-375): 74.279 µM
- IC50 ([6]; read-out: IC50: Concentration to inhibit 50% of cell growth, A-375): 47.9 µM
- CC50 ([6]; read-out: LC50: Concentration for 50% cell death, A-375): 93.1 µM
- Relative viability (%) of test items ([7]; 0.781 µM): 94.8%
- Relative viability (%) of test items ([7]; 1.562 µM): 106.3%
- Relative viability (%) of test items ([7]; 3.125 µM): 104.4%
- Relative viability (%) of test items ([7]; 6.25 µM): 105.3%
- Relative viability (%) of test items ([7]; 12.5 µM): 92.2%
- Relative viability (%) of test items ([7]; 25 µM): 72.4%
- Relative viability (%) of test items ([7]; 50 µM): 32.5%
- Relative viability (%) of test items ([7]; 100 µM): −39.4%
- TGI: Concentration for total inhibition of cell growth ([7]; DU-145): 69.568 µM
- IC50 ([7]; read-out: IC50: Concentration to inhibit 50% of cell growth, DU-145): 39.3 µM
- CC50 ([7]; read-out: LC50: Concentration for 50% cell death, DU-145): > 100 µM
- effect on the profile of antiproliferative activity in association with cisplatin (OVCAR-3 cell line): substantially improved
- Relative viability (%) of test items ([8]; 0.781 µM): 79.9%
- Relative viability (%) of test items ([8]; 1.562 µM): 90.2%
- Relative viability (%) of test items ([8]; 3.125 µM): 77.9%
- Relative viability (%) of test items ([8]; 6.25 µM): 59.2%
- Relative viability (%) of test items ([8]; 12.5 µM): 34.7%
- Relative viability (%) of test items ([8]; 25 µM): 16.9%
- Relative viability (%) of test items ([8]; 50 µM): −3.7%
- Relative viability (%) of test items ([8]; 100 µM): −51.1%
- TGI: Concentration for total inhibition of cell growth ([8]; OVCAR-3): 39.740 µM
- IC50 ([8]; read-out: IC50: Concentration to inhibit 50% of cell growth, OVCAR-3): 9.46 µM
- CC50 ([8]; read-out: LC50: Concentration for 50% cell death, OVCAR-3): > 100 µM
- Relative viability (%) of test items ([9]; 0.781 µM): 86.4%
- Relative viability (%) of test items ([9]; 1.562 µM): 85.8%
- Relative viability (%) of test items ([9]; 3.125 µM): 83.0%
- Relative viability (%) of test items ([9]; 6.25 µM): 74.2%
- Relative viability (%) of test items ([9]; 12.5 µM): 63.0%
- Relative viability (%) of test items ([9]; 25 µM): 47.1%
- Relative viability (%) of test items ([9]; 50 µM): 25.6%
- Relative viability (%) of test items ([9]; 100 µM): −29.0%
- TGI: Concentration for total inhibition of cell growth ([9]; MCF-7): 70.609 µM
- IC50 ([9]; read-out: IC50: Concentration to inhibit 50% of cell growth, MCF-7): 24.3 µM
- CC50 ([9]; read-out: LC50: Concentration for 50% cell death, MCF-7): > 100 µM
- Relative cell viability (%) of test items ([10]; 0.781 µM): 90.8%
- Relative cell viability (%) of test items ([10]; 1.562 µM): 93.7%
- Relative cell viability (%) of test items ([10]; 3.125 µM): 103.0%
- Relative cell viability (%) of test items ([10]; 6.25 µM): 94.2%
- Relative cell viability (%) of test items ([10]; 12.5 µM): 78.3%
- Relative cell viability (%) of test items ([10]; 25 µM): 32.7%
- Relative cell viability (%) of test items ([10]; 50 µM): 15.7%
- Relative cell viability (%) of test items ([10]; 100 µM): −71.9%
- TGI: Concentration for total inhibition of cell growth ([10]; HT-29): 53.711 µM
- IC50 ([10]; read-out: IC50: Concentration to inhibit 50% of cell growth, HT-29): 25.1 µM
- CC50 ([10]; read-out: LC50: Concentration for 50% cell death, HT-29): 85.8 µM
- variation of denaturation temperature (Tm) of native hGal1 [11]: greater variation
